Values quoted from earlier work in patent US8536129B2, “Treatment for anxiety” (NoNO Inc., priority 2007, dated 2013).

Target: N-type calcium channels (Homo sapiens, UniProt Q00975)
Conditions: reported in co-pending application 60/904,507

Chain of N-type calcium channels (Q00975 whole entry): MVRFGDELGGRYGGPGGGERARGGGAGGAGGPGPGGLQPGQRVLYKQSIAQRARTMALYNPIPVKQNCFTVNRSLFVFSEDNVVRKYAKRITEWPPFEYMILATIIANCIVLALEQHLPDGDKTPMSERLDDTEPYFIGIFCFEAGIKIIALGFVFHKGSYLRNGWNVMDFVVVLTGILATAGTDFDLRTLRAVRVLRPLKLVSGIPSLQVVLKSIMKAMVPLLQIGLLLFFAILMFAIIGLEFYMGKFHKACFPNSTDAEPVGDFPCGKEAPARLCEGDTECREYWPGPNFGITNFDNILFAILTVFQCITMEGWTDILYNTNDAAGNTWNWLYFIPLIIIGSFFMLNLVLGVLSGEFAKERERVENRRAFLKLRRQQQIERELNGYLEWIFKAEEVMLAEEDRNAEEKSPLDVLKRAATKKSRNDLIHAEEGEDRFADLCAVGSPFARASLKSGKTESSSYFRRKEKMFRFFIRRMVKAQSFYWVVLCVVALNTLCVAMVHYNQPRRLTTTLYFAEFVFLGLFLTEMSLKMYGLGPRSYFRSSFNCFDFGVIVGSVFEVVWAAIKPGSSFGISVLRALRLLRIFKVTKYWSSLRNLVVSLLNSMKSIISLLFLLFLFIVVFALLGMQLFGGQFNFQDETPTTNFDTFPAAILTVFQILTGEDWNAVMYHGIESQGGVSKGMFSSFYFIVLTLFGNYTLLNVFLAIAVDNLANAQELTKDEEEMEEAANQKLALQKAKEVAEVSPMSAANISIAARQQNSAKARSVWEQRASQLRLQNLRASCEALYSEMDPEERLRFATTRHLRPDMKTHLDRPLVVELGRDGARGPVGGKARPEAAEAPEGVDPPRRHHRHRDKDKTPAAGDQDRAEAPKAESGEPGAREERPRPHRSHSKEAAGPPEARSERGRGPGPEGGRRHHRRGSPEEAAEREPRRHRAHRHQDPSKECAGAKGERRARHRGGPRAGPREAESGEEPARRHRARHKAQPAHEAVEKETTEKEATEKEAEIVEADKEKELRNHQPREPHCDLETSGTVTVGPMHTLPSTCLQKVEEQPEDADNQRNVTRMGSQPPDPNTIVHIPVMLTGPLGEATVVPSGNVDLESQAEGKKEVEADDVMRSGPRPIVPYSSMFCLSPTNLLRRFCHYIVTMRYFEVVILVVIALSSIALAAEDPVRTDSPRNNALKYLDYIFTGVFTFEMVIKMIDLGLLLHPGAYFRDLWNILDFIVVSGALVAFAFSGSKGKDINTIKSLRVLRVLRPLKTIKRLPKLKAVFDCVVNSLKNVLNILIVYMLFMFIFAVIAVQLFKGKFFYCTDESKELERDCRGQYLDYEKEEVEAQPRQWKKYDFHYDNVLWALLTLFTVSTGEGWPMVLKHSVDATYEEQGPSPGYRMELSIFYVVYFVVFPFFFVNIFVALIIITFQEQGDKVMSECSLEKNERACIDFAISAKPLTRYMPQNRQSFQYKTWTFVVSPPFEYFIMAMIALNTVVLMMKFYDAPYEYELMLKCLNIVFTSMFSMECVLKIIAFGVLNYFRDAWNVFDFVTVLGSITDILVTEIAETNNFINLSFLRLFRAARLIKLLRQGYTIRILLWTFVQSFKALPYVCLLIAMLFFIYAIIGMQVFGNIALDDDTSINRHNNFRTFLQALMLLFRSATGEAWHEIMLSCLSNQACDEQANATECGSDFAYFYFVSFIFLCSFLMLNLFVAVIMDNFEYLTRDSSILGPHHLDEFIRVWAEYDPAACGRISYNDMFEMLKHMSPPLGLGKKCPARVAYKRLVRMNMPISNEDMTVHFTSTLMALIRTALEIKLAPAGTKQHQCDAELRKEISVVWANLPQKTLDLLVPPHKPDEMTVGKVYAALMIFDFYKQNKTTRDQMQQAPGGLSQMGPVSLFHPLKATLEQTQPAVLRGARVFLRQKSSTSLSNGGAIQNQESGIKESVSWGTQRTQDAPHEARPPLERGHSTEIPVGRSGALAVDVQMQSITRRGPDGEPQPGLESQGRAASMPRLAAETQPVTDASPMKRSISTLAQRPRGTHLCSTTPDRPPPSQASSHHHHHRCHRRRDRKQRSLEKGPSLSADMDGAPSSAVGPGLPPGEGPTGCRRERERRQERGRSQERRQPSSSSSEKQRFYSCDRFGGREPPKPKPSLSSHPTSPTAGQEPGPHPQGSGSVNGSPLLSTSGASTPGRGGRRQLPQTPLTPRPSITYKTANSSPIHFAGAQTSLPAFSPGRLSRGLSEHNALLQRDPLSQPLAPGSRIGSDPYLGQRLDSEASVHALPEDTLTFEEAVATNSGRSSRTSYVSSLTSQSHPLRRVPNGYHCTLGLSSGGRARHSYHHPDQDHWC

For YGRKKRRQRRR [standard tat peptide], which “binding to and inhibition of N-type calcium channels” value is on record?
The value was “binds to and inhibits N-type calcium channels”.
